Experimental data as given in the supplement of paper PMC7877785.
± gives the uncertainty stated by the source.

Test: self-splicing fitness, log relative to wild type (ln ratio); higher = more splicing; Tetrahymena group I intron in knt gene, E. coli kanamycin selection, DiMSum; sequences stand for … in CUCUCU…GGAGGGAAAAGUUAUCAGGCAUGCACCUGGUAGCUAGUCUUUAAACCAAUAGAUUGCAUCGGUUUAAAAGGCAAGACCGUCAAAUUGCGGGAAAGGGGUCAACAGCCGUUCAGUACCAAGUCUCAGGGGAAACUUUGAGAUGGCCUUGCAAAGGGUAUGGUAAUAAGCUGACGGACAUGGUCCUAACCACGCAGCCAAGUCCUAAGUCAACAGAUCUUCUGUUGAUAUGGAUGCAGUUCACAGACUAAAUGUCGGUCGGGGAAGAUGUAUUCUUCUCAUAAGAUAUAGUCGGACCUCUCCUUAAUGGGAGCUAGCGGAUGAAGUGAUGCAACACUGGAGCCGCUGGGAACUAAUUUGUAUGCGAAAGUAUAUUGAUUAGUUUUGGAGUACUCGUGGUCG
Summary of the method: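 Pooled colonies went to amplicon sequencing on an Illumina HiSeq 2500 after six replicate transformations. The plates were LB agar with 100 μg/mL carbenicillin, 50 μM IPTG and 0.2% rhamnose, with or without 25 μg/mL kanamycin, incubated overnight at 37°C or 30°C. The E. coli BL21(DE3) library had all eight P1ex-region intron nucleotides randomised, the intron placed in the knt kanamycin-resistance gene on pET-22b(+). DiMSum fitness is the error-weighted combination of replicate fold changes, kanamycin against none, normalised to wild type.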

| Sequence | self-splicing fitness (ln) (30 °C) | self-splicing fitness (ln) (37 °C) |
| --- | --- | --- |
| UGAUAGCAAUAUUACGACGG | -1.4 ± 0.19 | 0.124 ± 0.18 |
| GCCGAGCAAUAUUACGGUGC | -2.75 ± 0.24 | -2.48 ± 0.29 |
| GACAAGCAAUAUUACGAAAC | -2.29 ± 0.18 | -2.5 ± 0.17 |
| CCAAAGCAAUAUUACGCCGC | – | -2.58 ± 0.38 |
| GUGUAGCAAUAUUACGACUC | -0.267 ± 0.15 | -0.0849 ± 0.21 |
| CACUAGCAAUAUUACGUCUA | -2.25 ± 0.23 | -2.52 ± 0.29 |
| CUCUAGCAAUAUUACGGUUC | -2.69 ± 0.17 | -2.46 ± 0.29 |
| CCACAGCAAUAUUACGCAGG | -3.97 ± 0.27 | -2.35 ± 0.23 |
| CUCCAGCAAUAUUACGCGCA | -3.34 ± 0.31 | -2.56 ± 0.49 |
| CAAGAGCAAUAUUACGAGAG | -3.74 ± 0.16 | -1.83 ± 0.13 |
| CAAAAGCAAUAUUACGUAGU | -3.12 ± 0.12 | -2.76 ± 0.18 |
| CAACAGCAAUAUUACGACCC | -1.31 ± 0.13 | -2.62 ± 0.33 |
| GCUAAGCAAUAUUACGACUA | -1.7 ± 0.19 | -0.865 ± 0.23 |
| UCCAAGCAAUAUUACGGUGG | -2.08 ± 0.079 | -0.995 ± 0.096 |
| UCCCAGCAAUAUUACGCGUC | -3.15 ± 0.19 | -1.47 ± 0.18 |
| UACAAGCAAUAUUACGUACC | -2.83 ± 0.19 | -1.93 ± 0.19 |
| UGUCAGCAAUAUUACGAAAG | -1.72 ± 0.14 | -1.21 ± 0.17 |
| CGUGAGCAAUAUUACGUGGG | -2.91 ± 0.14 | -1.99 ± 0.11 |
| GAGCAGCAAUAUUACGUAUA | -3.2 ± 0.27 | -2.97 ± 0.27 |
| UACGAGCAAUAUUACGGCGA | -1.39 ± 0.15 | -0.508 ± 0.15 |
| GUUGAGCAAUAUUACGGUGC | -2.79 ± 0.3 | -2.39 ± 0.44 |
| UUGCAGCAAUAUUACGGGGC | -3.99 ± 0.2 | -2.35 ± 0.2 |
| AUCAAGCAAUAUUACGGUCG | -2.22 ± 0.12 | -2.03 ± 0.14 |
| GGUGAGCAAUAUUACGUGUC | -3.03 ± 0.26 | -1.99 ± 0.32 |
| UUCUAGCAAUAUUACGCCUA | -1.94 ± 0.29 | -0.0729 ± 0.19 |
| GGAAAGCAAUAUUACGGUGC | -3.36 ± 0.27 | -1.62 ± 0.23 |

| Sequence | self-splicing fitness (ln) (30 °C) | self-splicing fitness (ln) (37 °C) |
| --- | --- | --- |
| UGAGAGCAAUAUUACGAGCC | -1.9 ± 0.33 | – |
| AACUAGCAAUAUUACGAAUU | -1.49 ± 0.076 | -0.396 ± 0.097 |
| UCGGAGCAAUAUUACGCUUU | – | -2.3 ± 0.49 |
| GUCUAGCAAUAUUACGAUGU | -1.11 ± 0.074 | 0.257 ± 0.086 |
| UUCCAGCAAUAUUACGCGCA | -0.0641 ± 0.12 | -0.358 ± 0.14 |
| UCAAAGCAAUAUUACGCUCG | -0.615 ± 0.081 | -0.0673 ± 0.12 |
| GCUAAGCAAUAUUACGGGUA | -1.32 ± 0.097 | 0.109 ± 0.09 |
| UUCCAGCAAUAUUACGAGAC | -2.82 ± 0.27 | -1.79 ± 0.32 |
| GACUAGCAAUAUUACGUGGC | -3.56 ± 0.24 | -2.54 ± 0.21 |
| UGCCAGCAAUAUUACGAAGU | -2.88 ± 0.22 | -2.97 ± 0.23 |
| AAACAGCAAUAUUACGAAGC | -3.98 ± 0.2 | -2.75 ± 0.18 |
| CAAGAGCAAUAUUACGUAAG | -0.178 ± 0.084 | -0.217 ± 0.12 |
| CUGCAGCAAUAUUACGCCCU | -3.15 ± 0.37 | -1.71 ± 0.33 |
| GAACAGCAAUAUUACGUGCU | -2.89 ± 0.14 | -1.88 ± 0.14 |
| AGGGAGCAAUAUUACGCUAU | -3.63 ± 0.43 | -1.85 ± 0.49 |
| AGCCAGCAAUAUUACGCUGA | -2.75 ± 0.16 | -1.87 ± 0.15 |
| AUGCAGCAAUAUUACGAUAC | -2.96 ± 0.38 | – |
| CCUAAGCAAUAUUACGAACA | -3.01 ± 0.29 | -1.96 ± 0.32 |
| AGCUAGCAAUAUUACGCUCU | -2.24 ± 0.18 | -1.57 ± 0.24 |
| CAGCAGCAAUAUUACGUUCA | -2.17 ± 0.2 | -0.173 ± 0.17 |
| GCACAGCAAUAUUACGUUGU | -3.71 ± 0.12 | -2.74 ± 0.12 |
| GGCAAGCAAUAUUACGAGGA | -3.3 ± 0.42 | -1.77 ± 0.24 |
| CCUCAGCAAUAUUACGCUCA | -2.6 ± 0.39 | -1.74 ± 0.22 |
| AGCGAGCAAUAUUACGAUUA | -2.78 ± 0.23 | -2.15 ± 0.23 |
| CUCCAGCAAUAUUACGUUCG | -3.41 ± 0.13 | -2.39 ± 0.17 |
| UCACAGCAAUAUUACGGUUU | -2.56 ± 0.068 | -1.15 ± 0.067 |

| Sequence | self-splicing fitness (ln) (30 °C) | self-splicing fitness (ln) (37 °C) |
| --- | --- | --- |
| UCACAGCAAUAUUACGAACU | -3.39 ± 0.16 | -2.23 ± 0.15 |
| GGGCAGCAAUAUUACGCCAG | -2.02 ± 0.1 | -0.684 ± 0.13 |
| GUGAAGCAAUAUUACGGCGC | -0.501 ± 0.17 | -0.89 ± 0.14 |
| CGCGAGCAAUAUUACGAUCA | -2.91 ± 0.19 | -2.04 ± 0.16 |
| CCGUAGCAAUAUUACGCACC | – | -2.21 ± 0.37 |
| UUAAAGCAAUAUUACGAUCA | 0.0315 ± 0.083 | 0.412 ± 0.097 |
| GGUCAGCAAUAUUACGUUUU | -0.899 ± 0.073 | -0.202 ± 0.078 |
| AGUUAGCAAUAUUACGGUUU | -0.98 ± 0.071 | -0.317 ± 0.1 |
| AGCGAGCAAUAUUACGGGCU | – | -1.59 ± 0.24 |
| GUGGAGCAAUAUUACGAACU | -0.836 ± 0.28 | -1.14 ± 0.42 |
| UCACAGCAAUAUUACGACCA | -1.89 ± 0.21 | 0.0251 ± 0.21 |
| GUAGAGCAAUAUUACGAUUG | -2.82 ± 0.16 | -2.4 ± 0.2 |
| UCCAAGCAAUAUUACGCGUG | -4.16 ± 0.21 | -2.53 ± 0.2 |
| AUGCAGCAAUAUUACGGGGU | -3.71 ± 0.17 | -2.88 ± 0.18 |
| UUAUAGCAAUAUUACGACUG | -1.05 ± 0.14 | -0.662 ± 0.15 |
| UUCAAGCAAUAUUACGGAGC | -2.66 ± 0.28 | -1.8 ± 0.23 |
| GUCCAGCAAUAUUACGCACG | -2.07 ± 0.21 | -0.825 ± 0.13 |
| UUACAGCAAUAUUACGCAGU | -4.23 ± 0.31 | -2.55 ± 0.28 |
| AGAAAGCAAUAUUACGUGGA | -2.47 ± 0.12 | -2.28 ± 0.13 |
| CCGGAGCAAUAUUACGGAGC | -3.73 ± 0.48 | -2.55 ± 0.44 |
| GGAGAGCAAUAUUACGCACG | – | -0.798 ± 0.47 |
| AUAUAGCAAUAUUACGCGAG | -2.35 ± 0.13 | -1.09 ± 0.13 |
| AAGUAGCAAUAUUACGACCG | -1.89 ± 0.086 | -1.35 ± 0.12 |
| UCAAAGCAAUAUUACGUAAG | -1.77 ± 0.08 | -0.788 ± 0.1 |
| AAGGAGCAAUAUUACGCCCA | -1.88 ± 0.27 | -1.46 ± 0.24 |
